T1: human CD19 on CHO-K1-human CD19 cells (human, UniProt P15391 20-556)
T1 construct: whole, on cells; also called CHO-K1-human CD19-2C8
T1 sequence (looked up): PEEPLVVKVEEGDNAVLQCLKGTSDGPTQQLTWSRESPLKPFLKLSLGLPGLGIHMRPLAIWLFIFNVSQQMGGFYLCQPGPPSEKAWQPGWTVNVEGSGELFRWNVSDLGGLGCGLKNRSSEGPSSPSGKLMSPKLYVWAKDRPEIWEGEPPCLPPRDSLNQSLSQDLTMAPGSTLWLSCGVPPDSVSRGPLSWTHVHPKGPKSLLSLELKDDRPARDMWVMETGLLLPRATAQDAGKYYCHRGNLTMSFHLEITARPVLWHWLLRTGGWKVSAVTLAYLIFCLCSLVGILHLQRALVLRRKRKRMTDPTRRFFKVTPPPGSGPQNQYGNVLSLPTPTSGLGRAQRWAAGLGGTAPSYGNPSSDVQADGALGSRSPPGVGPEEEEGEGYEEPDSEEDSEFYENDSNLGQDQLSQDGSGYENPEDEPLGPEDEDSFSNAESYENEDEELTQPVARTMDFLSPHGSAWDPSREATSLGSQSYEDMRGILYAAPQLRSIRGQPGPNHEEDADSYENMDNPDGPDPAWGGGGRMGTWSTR

T2: human CD19 on Raji cells (human, UniProt P15391 20-556)
T2 construct: whole, on cells
T2 sequence (looked up): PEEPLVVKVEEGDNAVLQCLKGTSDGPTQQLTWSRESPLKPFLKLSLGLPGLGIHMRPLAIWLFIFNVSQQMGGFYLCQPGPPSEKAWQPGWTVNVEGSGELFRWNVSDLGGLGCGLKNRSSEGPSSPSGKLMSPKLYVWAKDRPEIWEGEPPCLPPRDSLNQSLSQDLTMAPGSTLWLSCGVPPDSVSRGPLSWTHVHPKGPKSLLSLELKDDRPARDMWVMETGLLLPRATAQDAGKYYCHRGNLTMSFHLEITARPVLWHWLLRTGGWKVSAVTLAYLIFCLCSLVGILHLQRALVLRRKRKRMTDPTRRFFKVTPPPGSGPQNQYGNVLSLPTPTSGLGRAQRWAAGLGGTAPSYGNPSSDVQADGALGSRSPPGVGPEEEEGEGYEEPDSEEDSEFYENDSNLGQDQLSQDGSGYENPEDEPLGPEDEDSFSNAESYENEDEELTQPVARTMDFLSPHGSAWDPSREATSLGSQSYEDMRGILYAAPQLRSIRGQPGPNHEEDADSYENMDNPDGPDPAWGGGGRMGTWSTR

T3: cynomolgus monkey CD19 on peripheral blood B cells (cynomolgus monkey (Macaca fascicularis), UniProt A0A2K5W8L9 20-557)
T3 construct: whole, on cells; also called cynomolgus monkey B cells
T3 sequence: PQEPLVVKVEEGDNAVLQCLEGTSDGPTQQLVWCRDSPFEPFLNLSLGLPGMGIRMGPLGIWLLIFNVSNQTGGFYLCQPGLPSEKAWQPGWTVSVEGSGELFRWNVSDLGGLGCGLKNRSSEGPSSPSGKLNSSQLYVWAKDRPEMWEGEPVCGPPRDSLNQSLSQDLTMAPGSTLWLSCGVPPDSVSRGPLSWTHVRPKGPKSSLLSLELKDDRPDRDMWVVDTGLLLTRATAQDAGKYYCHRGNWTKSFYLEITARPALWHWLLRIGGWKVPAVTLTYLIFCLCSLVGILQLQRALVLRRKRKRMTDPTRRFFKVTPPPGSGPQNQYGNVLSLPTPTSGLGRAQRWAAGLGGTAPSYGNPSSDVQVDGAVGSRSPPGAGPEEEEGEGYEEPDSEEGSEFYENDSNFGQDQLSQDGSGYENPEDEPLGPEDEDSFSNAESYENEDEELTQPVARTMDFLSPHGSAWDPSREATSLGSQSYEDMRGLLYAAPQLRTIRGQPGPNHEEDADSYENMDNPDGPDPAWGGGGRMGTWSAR


Key:
[1] = target: T1, human CD19 on CHO-K1-human CD19 cells; assay: FACS on CHO-K1-human CD19 cells
Excerpt: (§1) The desired cells were scale-up cultured in a T-75 cell culture flask to the logarithmic growth phase. For the adherent cell CHO-K1, the medium was aspirated, the cells were washed 2 times with a PBS buffer, and then digested with trypsin. After the digestion was terminated, the cells were washed 2 times with a PBS buffer; and for suspension cell Raji, the supernatant of the medium was discarded by directly centrifugation, and the cell pellet was washed 2 times with PBS. After counting the cells in the previous step, the cell pellet was resuspended with [PBS+2% (w/w) BSA] blocking solution to 2×10⁶ cells/ml, and added to a 96-well FACS reaction plate at 50 μl/well, and then the sample to be tested was added at 50 μl/well, and incubated on ice for 2 h. The obtained mixture was centrifuged and washed 3 times with a PBS buffer. […] The obtained mixture was centrifuged and washed 5 times with a PBS buffer, and FACS (FACS Canto™, purchased from BD Company) was used for detection and result analysis. Data analysis was performed by software (FlowJo) to obtain the mean fluorescence intensity (MFI) of the cells. And then software (GraphPad Prism8) was used for analysis, data fitting, and EC50 value calculation. […] The same method was used to detect the binding of the chimeric antibodies to endogenous CD19-negative cells, MoLT4 cells (purchased from ATCC, CRL-1582), and CHO-K1 cells.

human CD19 on Raji cells = target: T2, human CD19 on Raji cells; assay: FACS on Raji cells
Excerpt: as §1

[2] = target: T3, cynomolgus monkey CD19 on peripheral …; assay: FACS, cynomolgus PBMC, CD20+ B cells
Description: The monkey peripheral blood mononuclear cells were extracted from fresh cynomolgus monkey peripheral blood (purchased from Shanghai Medicilon Inc.) according to the instructions of Ficoll-Paque Plus (purchased from GE Healthcae, catalog number: 171440-02). After the cell suspension was centrifuged, the cells were resuspended in PBS containing 1% BSA, and then the cells were counted. […] The mixture was incubated for 1 h at room temperature. After washing the cells three times, APC-labeled secondary antibody anti-human IgG Fc (catalog number: 409306, purchased from Biolegend) was added. After incubation at room temperature in the dark for 30 minutes, the cells were washed 5 times, gently resuspended with PBS containing 1% BSA, and detected and analyzed by FACS (FACS Canto™, purchased from BD Company), in which CD20 was used as a marker of B cells to gate the CD20-positive B cell population, the proportion of the chimeric antibody-labeled positive cells was analyzed, and the proportion of the chimeric antibody positive cell population to B cell population was calculated after treatments with the chimeric antibodies at the concentrations of 100 nM, 10 nM and 1 nM, respectively.

[3] = target: T4, monkey CD19 on HEK293T-monkey CD19 cells (monkey); assay: FACS on HEK293T-monkey CD19 cells
T4 construct: whole, on cells
Description: as §1, with “After” for “The desired cells were scale-up cultured in a T-75 cell culture flask to the logarithmic growth phase. For the adherent cell CHO-K1, the medium was aspirated, the cells were washed 2 times with a PBS buffer, and then digested with trypsin. After”
HEK293T-monkey CD19 cells were subjected to FACS detection and data analysis according to the method in example 5.2. […] The same method was used to detect binding of the chimeric antibodies to HEK293T cells.

Binder | EC50 [1] | Maximum mean fluorescence intensity [1] | EC50 (human CD19 on Raji cells) | Maximum mean fluorescence intensity (human CD19 on Raji cells) | Proportion of chimeric antibody positive cells to B cells (%) at 1 nM [2] | Proportion of chimeric antibody positive cells to B cells (%) at 10 nM [2] | Proportion of chimeric antibody positive cells to B cells (%) at 100 nM [2] | EC50 [3] | Maximum mean fluorescence intensity [3]
F5.10.6 (antibody, human IgG1, V domains shown, human-murine chimeric antibody, human IgG1) VH: DVQLQESGPGLVKPSQSLSLTCSVTDYSITSGYYWTWIRQFPGNKLEWMGYISYDGSTNYNPSLKNRFSITRDTSKNQFFLKLNSVIIEDTATYYCARDRMSTTWYFDVWGTGTTVTVSS VL: DIVLTQSPASLAVSLGQRATISCRASESVDNYGISFMHWYQQKPGQPPKLLIYRASKTESGIPARFSGSGSRTDFTLTINPVETDDVATYYCQQSNKYPRTFGGGTKVEIK | 2.6 nM | 47700 | 1.34 nM | 22100 | 61% | 97% | 99% | 4.98 nM | 99900
F5.3.6 (antibody, human IgG1, V domains shown, human-murine chimeric antibody, human IgG1) VH: DVQLQESGPGLVKPSQSQSLTCSVTGYSITSGYYWNWIRQFPGNKLEWMGYISYDGSNNYNPSLKNRISITRDTSKNQFFLKLNSVTTEDTVTYYCARAPLTGDRYWYFDVWGTGTTVTVSS VL: DIVLTQSPASLAVSLGQRATISCRASQSVSTSSYSYMHWYQQKPGQTPKLLIKYASNLKSGVPARFSGSGSGTDFTLNIHPVEEEDTATYYCQHSWEIPPTFGGGTKLEIK | 3.62 nM | 46900 | 3.19 nM | 22400 | 2% | 7% | 12% | 20.7 nM | 26100
F5.8.6 (antibody, human IgG1, V domains shown, human-murine chimeric antibody, human IgG1) VH: QVQLHQPGAELVMPGASVTLSCKASGYTFTSYWMHWVKQRPGQGLEWIGEIDPSDSYTTYDQKFKGKATLTVDKFSSTAYMQFSSLTSEDSAVYYCARLTGNHLDYWGQGTTLTVSS VL: DIVMTQSHKFMSSSVGDRVSITCKASQDVSPAVAWYQQKPGQSPKLLIYSTSYRNTGVPDRFTGSGSGTDFTFTISSVQAEDLAVYYCQQHYSIPLTFGAGTKLELK | 3.5 nM | 53600 | 1.26 nM | 27300 | 5% | 13% | 18% | 5.7 nM | 43800

These reach a lower EC50 [1]. Values come first.

EC50 [1] | Maximum mean fluorescence intensity [1] | EC50 (human CD19 on Raji cells) | Maximum mean fluorescence intensity (human CD19 on Raji cells) | Proportion of chimeric antibody positive cells to B cells (%) at 1 nM [2] | Proportion of chimeric antibody positive cells to B cells (%) at 10 nM [2] | Proportion of chimeric antibody positive cells to B cells (%) at 100 nM [2] | EC50 [3] | Maximum mean fluorescence intensity [3] | Binder
0.84 nM | 63300 | 5.25 nM | 43300 | 91% | 97% | 97% | 0.94 nM | 99100 | F6.12.12 (antibody, human IgG1, V domains shown, human-murine chimeric antibody, human IgG1) VH: DVQLQESGPGLVKPSQSLSLTCSVTGYSITSGYYWIWIRQFPGNKLEWMGYISYDASNKYKPSLKNRISITRDTSKNQFFLKLNSVTAEDTATYFCAREDLRGYFDVWGTGTSVTVSS VL: DIVLTQSPASLAVSLGRRATISCRASQSVSTSGFSYMHWYQQKPGQPPNLLIKYASILQSGVPARFSGSGSGTDFILNIHPVEDVDTATYYCQHSWGIPFTFGSGTKLEIK
1.02 nM | 34000 | 2.79 nM | 17600 | 93% | 98% | 98% | 2.82 nM | 81500 | F5.2.9 (antibody, human IgG1, V domains shown, human-murine chimeric antibody, human IgG1) VH: QVTLKESGPGILQPSQTLSLTCSFSGFSLSTFGLGVGWVRQPSGKGLEWLAHIWWDDDKYYNPALKSRVTVSKETSKNQVFFKIANVDTADSATYYCARLSRGLRRDVVYAMDHWGQGTSVTVSS VL: DIQMTQTTSSLSASLGDRVTISCRASQDISNYLNWYQQKPDGSVKLLISYVSRLQSGVPSRFRGSGSGTDYSLTISNLDQEDIATYFCQQGIAFPYTFGGGTKLDIK
0.77 nM | 55300 | 0.81 nM | 27600 | 1% | 2% | 9% | 3.86 nM | 40500 | F4.272.13 (antibody, human IgG1, V domains shown, human-murine chimeric antibody, human IgG1) VH: QVQLKESGPGLVAPSQSLSITCTVSGFSLTDYGVSWIRQPPGKGLEWLGVIWGSETTFYNSALKSRLSISKDNSKSQLFLQMNSLQADDTAIYYCAKHHYYGGSFSMDYWGQGTSVTVSS VL: DIQMTQTTSSLSASLGDRVTISCRASQDINNYLNWYQQKPDGTVKFLIYYTSRLHSGVPSRFSGSGSGTDYSLTISDLEQEDIATYFCQQGNTLPYTFGGGTKLEIK
1.05 nM | 50200 | 0.78 nM | 23500 | 2% | 1% | 2% | – | 597 | F4.276.12 (antibody, human IgG1, V domains shown, human-murine chimeric antibody, human IgG1) VH: EIQLQQSGPELVKPGASVKVSCKASGYAFSAYNMYWVKQSHGKSLEWIGYIDPYNGGTNYNQKFKGKATLTVDKSSSTAYMHLNSLTSEDSAVYYCARDGYEVTYWGQGTLVTVSA VL: QIVLTQSPALMSASLGEEITLTCSASSSVTYMHWSQQKSGTSPRLLIYSTSNLASGVPSRFSGSGSGTFYSLTISSVEAEDAADYYCHQWSSYPWTFGGGTKLEIK

— patent US20250042994A1 (HAINAN SIMCERE ZAIMING PHARMACEUTICAL, published 2025)
